The target in assay [1] is T1, hPTK7-His (soluble His-tagged human PTK7 extracellular domain) (human, UniProt Q13308 31-704).
T1 construct: also called PTK7-ECD-His; monomeric recombinant hPTK7-His (isoform a)
T1 sequence: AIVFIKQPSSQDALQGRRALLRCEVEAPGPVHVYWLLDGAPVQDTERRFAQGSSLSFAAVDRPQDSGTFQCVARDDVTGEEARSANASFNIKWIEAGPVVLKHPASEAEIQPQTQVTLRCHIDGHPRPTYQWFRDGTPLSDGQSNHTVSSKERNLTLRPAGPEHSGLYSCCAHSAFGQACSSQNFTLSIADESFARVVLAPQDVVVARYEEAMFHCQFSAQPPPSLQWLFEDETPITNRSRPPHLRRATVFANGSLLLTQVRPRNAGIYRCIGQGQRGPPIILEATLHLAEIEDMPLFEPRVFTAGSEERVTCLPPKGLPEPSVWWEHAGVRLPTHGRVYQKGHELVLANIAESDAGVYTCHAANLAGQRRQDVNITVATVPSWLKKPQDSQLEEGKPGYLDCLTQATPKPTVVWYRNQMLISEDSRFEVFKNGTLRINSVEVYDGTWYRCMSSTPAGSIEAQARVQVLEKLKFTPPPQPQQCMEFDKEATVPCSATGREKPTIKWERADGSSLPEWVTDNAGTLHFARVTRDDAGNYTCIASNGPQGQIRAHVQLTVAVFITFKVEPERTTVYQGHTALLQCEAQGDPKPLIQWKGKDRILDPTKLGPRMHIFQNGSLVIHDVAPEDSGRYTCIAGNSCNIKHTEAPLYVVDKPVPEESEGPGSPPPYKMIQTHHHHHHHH
As to the kind of experiment: Biacore (superscript B); column Affinity (nM).

The target in assay [2] is T2, PTK7 ECD Ig domains 6-7 Fc fusion (human).
T2 chain: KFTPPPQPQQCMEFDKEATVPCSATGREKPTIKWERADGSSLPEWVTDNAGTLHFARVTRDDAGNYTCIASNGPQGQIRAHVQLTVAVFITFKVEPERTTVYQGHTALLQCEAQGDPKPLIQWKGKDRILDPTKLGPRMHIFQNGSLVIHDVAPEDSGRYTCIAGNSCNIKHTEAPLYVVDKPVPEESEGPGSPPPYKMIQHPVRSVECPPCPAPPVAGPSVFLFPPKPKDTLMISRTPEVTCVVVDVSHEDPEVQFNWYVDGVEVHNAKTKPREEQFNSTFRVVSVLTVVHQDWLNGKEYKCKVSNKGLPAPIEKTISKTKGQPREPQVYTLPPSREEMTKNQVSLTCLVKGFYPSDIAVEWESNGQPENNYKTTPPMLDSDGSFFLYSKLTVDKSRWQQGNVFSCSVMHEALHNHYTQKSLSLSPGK
Description: ELISA, Ig-domain Fc fusion captured by anti-human IgG Fc.

Assay [3] concerns the target T3, PTK7 ECD Ig domains 1-4 Fc fusion (human).
T3 chain: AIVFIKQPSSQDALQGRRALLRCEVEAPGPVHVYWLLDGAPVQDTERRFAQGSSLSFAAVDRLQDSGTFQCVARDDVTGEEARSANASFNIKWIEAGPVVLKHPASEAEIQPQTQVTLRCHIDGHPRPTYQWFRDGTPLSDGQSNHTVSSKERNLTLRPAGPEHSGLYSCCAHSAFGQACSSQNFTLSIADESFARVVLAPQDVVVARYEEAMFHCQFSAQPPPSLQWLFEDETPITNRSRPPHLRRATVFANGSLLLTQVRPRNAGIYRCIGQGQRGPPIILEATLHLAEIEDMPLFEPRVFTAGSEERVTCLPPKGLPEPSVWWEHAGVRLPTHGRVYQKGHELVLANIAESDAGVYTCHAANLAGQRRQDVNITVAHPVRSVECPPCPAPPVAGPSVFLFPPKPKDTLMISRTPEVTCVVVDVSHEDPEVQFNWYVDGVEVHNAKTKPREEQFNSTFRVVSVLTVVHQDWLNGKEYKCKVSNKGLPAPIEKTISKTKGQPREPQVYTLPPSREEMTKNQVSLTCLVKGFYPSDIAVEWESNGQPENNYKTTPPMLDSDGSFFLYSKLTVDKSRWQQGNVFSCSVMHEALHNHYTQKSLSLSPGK
Described as above.

For assay [4], the target named is T4, PTK7 ECD Ig domains 1-5 Fc fusion (human).
T4 chain: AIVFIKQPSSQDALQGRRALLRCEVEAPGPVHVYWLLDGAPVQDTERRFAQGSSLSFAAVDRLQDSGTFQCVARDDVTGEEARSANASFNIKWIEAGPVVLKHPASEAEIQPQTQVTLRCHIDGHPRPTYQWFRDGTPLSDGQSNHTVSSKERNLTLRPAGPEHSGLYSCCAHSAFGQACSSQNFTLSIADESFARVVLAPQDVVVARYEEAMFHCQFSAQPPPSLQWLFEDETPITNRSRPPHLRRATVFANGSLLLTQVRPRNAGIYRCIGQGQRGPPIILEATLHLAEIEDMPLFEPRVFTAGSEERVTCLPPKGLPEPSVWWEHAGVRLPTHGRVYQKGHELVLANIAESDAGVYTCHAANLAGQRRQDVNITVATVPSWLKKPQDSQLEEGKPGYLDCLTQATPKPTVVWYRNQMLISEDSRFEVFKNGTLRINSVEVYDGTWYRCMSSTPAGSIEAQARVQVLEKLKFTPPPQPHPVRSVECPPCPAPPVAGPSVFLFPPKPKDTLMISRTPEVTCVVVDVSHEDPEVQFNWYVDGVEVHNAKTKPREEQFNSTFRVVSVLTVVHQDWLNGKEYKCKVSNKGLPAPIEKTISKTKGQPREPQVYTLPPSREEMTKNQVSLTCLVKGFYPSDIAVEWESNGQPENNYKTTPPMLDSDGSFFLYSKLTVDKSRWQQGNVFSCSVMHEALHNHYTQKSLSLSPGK
The assay is described as above.

B1: SC6.10.2 (antibody, V domains shown)
VH: QVQLQQSGAELVRPGVSVKISCKGSGYRFTDYPIHWVKQSHAKSLEWIGIISTYYGDVTNNPKFRGKATMTVDKSSTTAYMELARLTSEDSAIYYCARNDLFAYWGQGTLVTVSA
VL: DIVMTQSQKFMSTSVGDRVNVTCKASQNVGTNVVWYQQKTGQSPKALIHSASYRYSGVPDRFTGSGSGTDFTLTLSNVQSEDLAEYFCQHYNSFPYTFGGGTKLEIKR
notes: Murine monoclonal antibody from a hybridoma; also called H10.2; H10
On to B1, for which, in assay [1], the Kd was found to be 5.6 nM. Besides, the binding result in assay [2] is recorded as “no binding”; in assay [3], “binds”; in assay [4] it was “binds”.

B2: SC6.2.35 (antibody, V domains shown)
VH: QVQMQQSGAELMKPGASVKLSCKATGYTFTGYWIEWVKQRPGHGLEWIGEILPGSGRSNSNEKFKGKATFTADTSSNTAYMQLSSLTTEDSAIYYCARGKLSWGQGTLVTVSA
VL: DIVLTQSPASLAVSLGQRATISCRASESVDSFGNSFMHWYQQKPGQPPKLLIYAASNLGSGVPARFSGSGSGTDFSLNIHPVEEDDSAMYFCQQSKEVPRTFGGGSRLEIKR
notes: Murine monoclonal antibody from a hybridoma; also called H2.35; SC6.H2
For the molecule B2, the dissociation constant Kd in assay [1] was below 0.1 nM. Besides, the figures for the binding result in assay [2], in assay [3] and in assay [4] were “no binding”, “binds” and “binds”, respectively.
